Results taken from patent US20240024480A1 (MIE UNIVERSITY, published 2024).

Biological target: HLA-A24 PRAMEp301-309 pMHC complex (human)
Test: SPR, Biacore X100, Biotin CAPture Kit; A24 PRAMEp301-309 immobilised as ligand, scFv-pp at 31.25-500 nM, global fit

Kd: 5.3 nM
B1: #98 scFvCL-pp (scFv)
chain: QVQLVQSGAEVKKPGSSVKVSCKASGGTFSSYAISWVRQAPGQGLEWMGGIIPIFGTANYAQKFQGRVTITADESTGTAYMELSSLRSEDTAVYYCARHHSNYYYYGMDVWGQGTTVTVSRSYELTQPLSVSVALGQTARITCGGNNIGSKNVHWYQQKPGQAPVLVIYRDSNRPSGIPERFSGSNSGNTATLTISRAQAGDEADYYCQVWDSSHVFGTGTKVTVL
